Data on 1 molecule can be found in article PMC13364712.

This experiment deals with actin filaments (actin from Gallus gallus skeletal muscle) (Gallus gallus (chicken)), P68139. Nature of the experiment: co-sedimentation; 4 µM EGFP–SFM peptide with 0–200 µM actin filaments in F buffer, 1 h at room temperature, 100,000g for 30 min; pellet read by anti-EGFP western blot; one-site specific binding fit; apparent. On the technique in general: In western blotting, separated proteins are transferred to a membrane and probed.

In the case of RRSVGELRLLFEARCAAVAAAA (modifications not checked) [EGFP-tagged ITPKA SFM peptide, P23677 1-461], the Kd came out at 2000 nM.
